Assay results as given in IntAct's records for PubMed 25888478.

B1: Protein interacting with Hsp90 1 (Saccharomyces cerevisiae), P38768 (parent)
chain: MADFLLRPIKQRHRNEDKYVSVDAADGSVSKIEPIADFVIKTKLLSANGPEKLQDGRKVFINVCHSPLVPKPEVDFNARIVFPLIIQNEWEIPIITSCYRMDHDKKGQECYVWDCCINSDCSRWICDDIQLREILVEWCLESCEIRDSVVLCRDRIAFPKMKKKGAELPALEVLNDELHQDYKAKMHKIIEEEAGDPMSILRGRNDDGDDNNDPDDGTLPPLFPIENKISGAKIEEIDKNEIAHRNLKQAPAPAPAPHEQQEDVPEYEVKMKRFKGAAYKLRILIENKAPNSKPDRFSPSYNFAENILYINGKLSIPLPRDIVVNAADIKIFHIRKERTLYIYI
partner: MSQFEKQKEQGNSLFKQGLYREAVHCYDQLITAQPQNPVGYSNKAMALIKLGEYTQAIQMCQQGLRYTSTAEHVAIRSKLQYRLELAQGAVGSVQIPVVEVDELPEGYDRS

Variants of: B1
Settings: with tah1_yeast TAH1, P25638

Row | Variant | effect of a mutation on the interaction
1 | MADFLLRPIKQRHRNEDKYVSVDAADGSVSKIEPIADFVIKTKLLSANGPEKLQDGRKVFINVCHSPLVPKPEVDFNARIVFPLIIQNEWEIPIITSCYRMDHDKKGQECYVWDCCINSDCSRWICDDIQLREILVEWCLESCEIRDSVVLCRDRIAFPKMKKKGAELPALEVLNDELHQDYKAKMHKIIEEEAGDPMSILRGRNDDGDDNNDPDDGTLPPLFPIENKISGAKIEEIDKNEIAHRNLKQAPAPAPAPHEQQEDVPEYEVKMKRFKGAAYKLRILIENKAPNSKPDRFSPSYNFAESILYINGKLSIPLPRDIVVNAADIKIFHIRKERTLYIYI [N306S] | disrupting interaction
